Test results published in publication PMC3351836 (Science (New York, N.y.), 2011).

Molecular target: YU2-gp120 (HIV-1 group M subtype B, isolate YU-2, UniProt P35961)
Experiment: ELISA

B1: NIH45-46 (antibody, V domains shown)
VH: QVRLSQSGGQMKKPGESMRLSCRASGYEFLNCPINWIRLAPGRRPEWMGWLKPRGGAVNYARKFQGRVTMTRDVYSDTAFLELRSLTSDDTAVYFCTRGKYCTARDYYNWDFEHWGRGAPVTVSS
VL: EIVLTQSPATLSLSPGETAIISCRTSQSGSLAWYQQRPGQAPRLVIYSGSTRAAGIPDRFSGSRWGADYNLSISNLESGDFGVYYCQQYEFFGQGTKVQVD
  binding result: binds

B2: 3BNC60 (antibody, V domains shown)
VH: QVHLSQSGAAVTKPGASVRVSCEASGYKISDHFIHWWRQAPGQGLQWVGWINPKTGQPNNPRQFQGRVSLTRQASWDFDTYSFYMDLKAVRSDDTAIYFCARQRSDFWDFDVWGSGTQVTVSS
VL: DIQMTQSPSSLSARVGDTVTITCQANGYLNWYQQRRGKAPKLLIYDGSKLERGVPARFSGRRWGQEYNLTINNLQPEDVATYFCQVYEFIVPGTRLDLK
  binding result: binds
